In patent US7049289B1, “Labelled glutamine and lysine analogues” (Amersham PLC, priority 1998, dated 2006):
Where two headings read alike, the source gives them in different places.

How the values were obtained:
[1] = molecular target: T1, fibrin (in vitro human plasma clot) (Homo sapiens, UniProt P02671+P02675+P02679); test: Incorporation into human plasma clots in vitro; type: biochemical; conditions: for % specific uptake: % retained (with thrombin) - % retained (no thrombin); for % retained (no thrombin): control without thrombin and calcium chloride (non-specific binding); for % retained (with thrombin): human plasma clot, 60 minutes, ca. 20° C.
T1 construct: about 400 μl of human plasma containing the radiolabelled substrate; from tissue; host or cells: human plasma, clotted in vitro with added thrombin and calcium chloride
T1 sequence (P02671 20-644 isoform P02671-2 limits assumed): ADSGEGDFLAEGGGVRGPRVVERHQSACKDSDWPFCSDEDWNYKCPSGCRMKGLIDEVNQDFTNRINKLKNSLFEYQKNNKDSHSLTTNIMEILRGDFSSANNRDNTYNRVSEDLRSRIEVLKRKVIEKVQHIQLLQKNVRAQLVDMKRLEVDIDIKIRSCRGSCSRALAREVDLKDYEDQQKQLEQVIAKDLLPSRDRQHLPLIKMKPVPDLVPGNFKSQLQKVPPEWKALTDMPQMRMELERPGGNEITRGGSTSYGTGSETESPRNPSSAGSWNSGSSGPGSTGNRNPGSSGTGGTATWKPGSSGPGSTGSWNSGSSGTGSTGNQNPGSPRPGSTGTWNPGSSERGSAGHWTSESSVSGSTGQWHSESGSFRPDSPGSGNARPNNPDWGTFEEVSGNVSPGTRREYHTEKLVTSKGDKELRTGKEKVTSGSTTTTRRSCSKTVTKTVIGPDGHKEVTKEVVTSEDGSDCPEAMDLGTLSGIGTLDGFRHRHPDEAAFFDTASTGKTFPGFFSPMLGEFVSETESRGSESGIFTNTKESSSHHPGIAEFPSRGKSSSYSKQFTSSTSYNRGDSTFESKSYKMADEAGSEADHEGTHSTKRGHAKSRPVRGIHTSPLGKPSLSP
T1 sequence (P02675 45-491 limits assumed): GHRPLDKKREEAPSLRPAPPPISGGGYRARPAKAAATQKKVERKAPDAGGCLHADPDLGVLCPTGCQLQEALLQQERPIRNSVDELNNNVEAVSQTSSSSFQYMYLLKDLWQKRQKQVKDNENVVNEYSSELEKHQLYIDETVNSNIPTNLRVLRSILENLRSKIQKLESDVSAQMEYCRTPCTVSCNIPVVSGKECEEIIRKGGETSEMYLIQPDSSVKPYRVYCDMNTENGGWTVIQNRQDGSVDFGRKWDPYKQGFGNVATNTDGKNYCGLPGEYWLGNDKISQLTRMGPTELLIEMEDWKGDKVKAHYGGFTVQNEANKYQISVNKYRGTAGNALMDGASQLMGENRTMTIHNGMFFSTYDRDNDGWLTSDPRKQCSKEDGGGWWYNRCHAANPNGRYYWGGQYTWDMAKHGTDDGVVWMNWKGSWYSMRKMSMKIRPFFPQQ
T1 sequence (P02679 27-437 isoform P02679-2 limits assumed): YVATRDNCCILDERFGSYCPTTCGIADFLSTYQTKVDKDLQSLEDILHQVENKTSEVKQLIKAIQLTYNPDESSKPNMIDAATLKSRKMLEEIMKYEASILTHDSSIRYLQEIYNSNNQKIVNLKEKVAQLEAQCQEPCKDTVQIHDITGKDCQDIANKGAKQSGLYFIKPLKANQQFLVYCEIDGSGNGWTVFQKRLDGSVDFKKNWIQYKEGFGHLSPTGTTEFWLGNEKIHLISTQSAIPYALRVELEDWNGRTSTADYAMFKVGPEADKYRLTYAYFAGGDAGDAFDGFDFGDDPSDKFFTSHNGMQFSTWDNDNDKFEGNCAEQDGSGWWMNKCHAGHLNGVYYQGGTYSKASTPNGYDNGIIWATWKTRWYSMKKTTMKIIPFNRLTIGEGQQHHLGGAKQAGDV
How it was run: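 Fibrin incorporation is expressed as the fraction of total radioactivity retained with filtered clots, corrected for non-specific binding in controls lacking thrombin and calcium chloride. Clotting was induced by thrombin in Ca2+-containing Tris-buffered saline (pH 7.5) with human plasma carrying about 10 kBq/ml tracer, for 60 min at ambient temperature before EDTA quench.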

[2] = parameters: species or system rat (Male Wistar); conditions: rat, in vivo; for % ID Blood / % ID GI Tract / % ID Heart / % ID Kidney / % ID Liver / % ID Lung / % ID Muscle / % ID Urine: iv
Experimental: The resolution of a clot image is dependant on the combination of rate of incorporation of the radiopharmaceutical and its blood/tissues clearance rate. For this reason the biodistribution of several compounds has been determined in rats. Male Wistar (100–150 g) rats were injected i.v. with 0.1–0.2 ml of radiolabelled tracer solution (8 MBq/ml) and dissected at different times post-injection. The % ID in each of the selected tissues was measured. Some animals were kept in metabolism cages to be able to determine the % ID excreted in urine and faeces. The dissection times used for the agent were 15, 30, 60, 240 min. Data are shown as mean of % ID (n=3).

[3] = Incorporation into clots induced in a rat model (rat inferior vena cava model); type: in vivo, rat (Male Wistar); conditions: for % id/g (clot) / Rel. Conc. (cpm/g of clot by dose/g animal): sacrificed after 60 min
How it was run: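 Male Wistar rats (250–350 g) under 15% urethane anaesthesia, with the vena cava isolated by laparotomy. Compounds given 5 min (fresh clot) or 60 min (aged clot) after clot induction; clot, blood, lung and heart removed 60 min later, weighed and counted. Uptake expressed as cpm/g clot per dose/g animal and as clot-to-background tissue ratio.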

[4] = human, plasma, 2 h
Experimental: (§1) To a portion of compound (50 μl, 10 MBq/ml) was added an equal volume of plasma (rat or human) or saline. The mixtures were incubated at 37° C. and the stability measured by HPLC (system C) at 0, 30 and 120 minutes. The saline dilution acted as a control.

[5] = rat, plasma, 2 h
Experimental: as §1

[6] = Imaging of clots induced in a rat model (jugular vein); type: in vivo, rat (male Wistar); conditions: planar gamma camera images 15–180 min p.i.
Experimental: Clots were induced in male Wistar rats (250–350 g) as described in Example 17, with the exception that for these experiments the platinum wire was located in the jugular vein. The compounds were injected 60 min […] and planar images acquired between 15–180 min p.i. A Park medical Isocam I gamma camera was used for these experiments, 300K or 150K counts were of the thorax were collected using a LEUHR or a LEPH collimator. Clots were visualised from 15 min p.i.

[7] = ^125I radiolabelled; cited from earlier work
[8] = Aged Clots: injected 60 min post-induction
[9] = Fresh Clots: injected 5 min post-induction

Substance: Ac-NQEQVSPYTLLKG-Pn44 (also: 99mTc complex) [^99mTc-Cmpd 3]
- % specific uptake [1]: 39.0%
- % retained (no thrombin) [1]: 0.3%
- % retained (with thrombin) [1]: 39.3%
- t1/2 (blood clearance, biological half life) [2]: 2 h
- % ID Blood ([2]; 0.25 h): 5.3 % ID
- % ID GI Tract ([2]; 0.25 h): 13.5 % ID
- % ID Heart ([2]; 0.25 h): 0.2 % ID
- % ID Kidney ([2]; 0.25 h): 7.6 % ID
- % ID Liver ([2]; 0.25 h): 6.2 % ID
- % ID Lung ([2]; 0.25 h): 0.7 % ID
- % ID Muscle ([2]; 0.25 h): 14.7 % ID
- % ID Urine ([2]; 0.25 h): 14.9 % ID
- % ID Blood ([2]; 0.5 h): 1.8 % ID
- % ID GI Tract ([2]; 0.5 h): 15.1 % ID
- % ID Heart ([2]; 0.5 h): 0.1 % ID
- % ID Kidney ([2]; 0.5 h): 4.9 % ID
- % ID Liver ([2]; 0.5 h): 4.1 % ID
- % ID Lung ([2]; 0.5 h): 0.4 % ID
- % ID Muscle ([2]; 0.5 h): 10.4 % ID
- % ID Urine ([2]; 0.5 h): 34.3 % ID
- % ID Blood ([2]; 1 h): 1.6 % ID
- % ID GI Tract ([2]; 1 h): 18.0 % ID
- % ID Heart ([2]; 1 h): 0.1 % ID
- % ID Kidney ([2]; 1 h): 4.6 % ID
- % ID Liver ([2]; 1 h): 4.0 % ID
- % ID Lung ([2]; 1 h): 0.3 % ID
- % ID Muscle ([2]; 1 h): 5.1 % ID
- % ID Urine ([2]; 1 h): 37.0 % ID
- % ID Blood ([2]; 4 h): 0.6 % ID
- % ID GI Tract ([2]; 4 h): 20.7 % ID
- % ID Heart ([2]; 4 h): 0.04 % ID
- % ID Kidney ([2]; 4 h): 3.4 % ID
- % ID Liver ([2]; 4 h): 3.0 % ID
- % ID Lung ([2]; 4 h): 0.3 % ID
- % ID Muscle ([2]; 4 h): 2.9 % ID
- % ID Urine ([2]; 4 h): 42.0 % ID
- Clot/blood ([3]; Aged Clots): 8
- Clot/heart ([3]; Aged Clots): 23
- Clot/liver ([3]; Aged Clots): 5
- Clot/lung ([3]; Aged Clots): 11
- % id/g (clot) [3, 8]: 2.1 ± 0.8 % id/g
- Rel. Conc. (cpm/g of clot by dose/g animal) [3, 8]: 6.2 ± 2.2
- Clot/blood ([3]; Fresh Clots): 10
- Clot/heart ([3]; Fresh Clots): 17
- Clot/liver ([3]; Fresh Clots): 6
- Clot/lung ([3]; Fresh Clots): 8
- % id/g (clot) [3, 9]: 1.4 ± 0.4 % id/g
- Rel. Conc. (cpm/g of clot by dose/g animal) [3, 9]: 5.1 ± 1.2
- % intact at 120 mins [4]: >90%
- % intact at 120 mins [5]: >90%

Substance: Ac-NQEQVSPYTLLKG-Pn216 (also: 99mTc complex) [^99mTc-Cmpd 5]
- % specific uptake [1]: 35.3%
- % retained (no thrombin) [1]: 0.2%
- % retained (with thrombin) [1]: 35.5%
- Clot/blood ([3]; Aged Clots): 13
- Clot/heart ([3]; Aged Clots): 33
- Clot/liver ([3]; Aged Clots): 24
- Clot/lung ([3]; Aged Clots): 31
- % id/g (clot) [3, 8]: 3.6 ± 1.7 % id/g
- Rel. Conc. (cpm/g of clot by dose/g animal) [3, 8]: 11 ± 5.1
- Clot/blood ([3]; Fresh Clots): 21
- Clot/heart ([3]; Fresh Clots): 51
- Clot/liver ([3]; Fresh Clots): 43
- Clot/lung ([3]; Fresh Clots): 23
- % id/g (clot) [3, 9]: 6.0 ± 2.1 % id/g
- Rel. Conc. (cpm/g of clot by dose/g animal) [3, 9]: 16 ± 5.8
- suitability for imaging clots (in words) [6]: suitable for imaging clots
- % intact at 120 mins [4]: >90%
- % intact at 120 mins [5]: >90%

Substance: Ac-NQG-Pn44 [^99mTc-Cmpd 16]
- % specific uptake [1]: 12.4%
- % retained (no thrombin) [1]: 0.1%
- % retained (with thrombin) [1]: 12.5%
- in vitro clot uptake (in words) ([1]; in vitro clot): significant reduction in uptake
- Clot/blood ([3]; Fresh Clots): 3
- Clot/heart ([3]; Fresh Clots): 8
- Clot/liver ([3]; Fresh Clots): 0.8
- Clot/lung ([3]; Fresh Clots): 3
- % id/g (clot) [3, 9]: 0.3 ± 0.1 % id/g
- Rel. Conc. (cpm/g of clot by dose/g animal) [3, 9]: 1.0 ± 0.2
- % intact at 120 mins [4]: >90%
- % intact at 120 mins [5]: >90%

Substance: NQEQVSPYTLTLLK [synthetic analogue of the alpha-2 antiplasmin N-terminal peptide, WO 89/00051]
- uptake in thrombin clots in vitro (in words) [7]: taken up in thrombin clots in vitro
